According to the nanobody polyreactivity screen of Harvey et al. (2022):

Assay: yeast display, Sf9 membrane polyspecificity reagent, FACS + sequencing; frameworks hold sequencing errors
Outline: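 A nanobody's polyreactivity label depends on the gate it was sorted from. Yeast display cells were stained with 10% biotinylated, detergent-solubilized Sf9 membrane reagent for 1 hour at 4 °C, enriched on streptavidin microbeads and sorted by FACS. The low and high (top ~1%) gates were set on anti-HA fluorescence for expression and streptavidin fluorescence for reagent binding.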

Sequence	polyreactivity (PSR sort gate)
QVQLVESGGGIVQAGGSLLLSCPASGRIFGVYAMGWYRQAPGKERELVAGINGGDSTYYADSVKGRFTISRDNAKNTVYLQMNSLKPEDTAVYYCAAEADESGSNYDYWGQGSQVTVSS	low polyreactivity
QVQLVESGGGIVQAGGSLRISSAASGSIFGYYAMGWYIQEPGKERELVADITVRGGSTYYADSVKGRFTISRDNAKNTVYLQMNSLKPEDTAVYYCAAAQYTFWDGDSWGQGTQVTVSS	high polyreactivity
QVQLVESGGGIVQAGGSLRLICAASGIIFPVYAMGWYRPAPGKERELVAAISRSGGSTYYADSVKGRFTISRDHAKNTVYLQMNSLKPEDTAVYYCAARYVVGYSLSSYGYWGQGTQVTVSS	high polyreactivity
QVQLVESGGGIVQAGGSLRLLCAASGRNIINYDMGWYRQAPGKERELVAAITWSTGSTYADSVNGRFTISRDNAKNTVYLQMNSLSPEDTAVYYCAAPWGQTDDRHQGGDYWGQGTQVTVSS	low polyreactivity
QVQLVESGGGIVQAGGSLRLSCAASGFIFKRYAMGWYRQAPGKERELVAAITTSGGRTYYADSVKGRFTISRDNAKNTVYLLMNSLKPEDTAVYYCNADYGTYWWPYYYWGQGTQVTVSS	high polyreactivity
QVQLVESGGGIVQAGGSLRLSCAASGFTFGLYAMGWYRQAPGKERELVAVISSSGGSTYYADSVKGRFTISRDNAKNTVYLQMNSLKPEDTAVYYCAAEWHDYKFDVTYDYWGQVTQVTVSS	low polyreactivity
QVQLVESGGGIVQAGGSLRLSCAASGFTFGSNAMGWYRQAPGKERELVAAISRSSGRTYYADSVKGRFTISRDNAKNNVYLHMNSLKQEDTAVYYCDAQTPYRISLQYYYWGQGTQVTVSS	high polyreactivity
QVQLVESGGGIVQAGGSLRLSCAASGFTFGSYAMGWYRQAPGKEREFVAAIRRSGSSTYYADSVKGRFTISRDNAKNTVYLQMNSLKPEDTAVYYCAADVYRRLRRYRYYYWGQGTQVTVSS	low polyreactivity
QVQLVESGGGIVQAGGSLRLSCAASGFTFYYNAMGWYRQAPGKERELVAAISYRGGSTYYADSVKGRFTISRDNAKNTVYFQMNSLKPEDTAVYYCATRDPAFYRRYDYWGQATQVTVSS	high polyreactivity
QVQLVESGGGIVQAGGSLRLSCAASGGIFYRNAMGWYRQAPGKERELVAAISWRGGSTYYADSVKGRFTNSRDNAKNTVYLQMNSLKPEDTAVYFCAARSVATYRYDYWGQGTQVTVSS	high polyreactivity
QVQLVESGGGIVQAGGSLRLSCAASGIIFRAYAMGWSRQAPGKERELVAAISWSGGSTYYADSVKGRFTISRDNAKYTVYLQMNSLNPEDTAVYYCAAESLVYDFDYWGQGTQVTVSS	high polyreactivity
QVQLVESGGGIVQAGGSLRLSCAASGITFDLYAMGWSRQAPGKERELVAASTYYADSVKWRFTISRDYAKNTVYLQMNSLKPEDTAVYYCITREPVTSDYWGLGTQVTVSS	high polyreactivity
QVQLVESGGGIVQAGGSLRLSCAASGITSYFNAMGWYRQAPGKERELVAITWNGGSTYYADSVKGRFTITRDNAKNTVYLQMNSLKPEDTAVYYCAARYRRYNRKYDYWGQGTQVTVSS	high polyreactivity
QVQLVESGGGIVQAGGSLRLSCAASGLIFYYYALGWYRQAPGKERQLVAAITSGSTTYADSVKGRFTISRDNAKNTVYLQMNSLKPEDTAVYYCNKDQDYKLTTTFDYDYWGQGTQVTVSS	low polyreactivity
QVQLVESGGGIVQAGGSLRLSCAASGRIFANYAKGWYRQAPGKERELVAAISRSGGSTSYADSVKGRFTISRDNAKYTVYLQMNSLKPEETAVSYCAVVSPRQSYYYWGQGTQVTVSS	high polyreactivity
QVQLVESGGGIVQAGGSLRLSCAASGRIFDNYVLGWYRQAPGKERELVAAISSGGGTYYADSVKGRFTISRDNAKNTVYLQMNSLKPEDTAVYYCAKRRVYDRSFGRYDYWGQGTQVTVSS	low polyreactivity
QVQLVESGGGIVQAGGSLRLSCAASGRIFGYYAMGWYRQARGKERELVAAITWSGGRTYYADSVKGRFTISRDNAKNTVYLQMNSLKPDDTAVYYCAAVVQGPNRKYNYWGQGTQVTVSS	high polyreactivity
QVQLVESGGGIVQAGGSLRLSCAASGRIFLRNAMGWYRQAPGYEREFVAAMRYSGGRTYYADSVKGRFTISRDNAKNTVYLQMISLNPEDTAVYYCAAEGSSRSSYRKYDYWGQGSQVTVSS	high polyreactivity
QVQLVESGGGIVQAGGSLRLSCAASGRIFRINGMGWYRQAPGKEREFVAAITSGGGTYYADSVKGRFTISRDNAKNTVYLQMNSLKAEDTAVFYCAVRRRYGDDYWGHGTQVTVSS	high polyreactivity
QVQLVESGGGIVQAGGSLRLSCAASGRIFRIYAMGWYRQAPGKEWELVASISWGGASTYYADSVKGRFTISRDNAKNPVYLQMNSLKPEDTAVYDCAAVGYQGQYDYRSFGSWGQGTQVTVSS	high polyreactivity
QVQLVESGGGIVQAGGSLRLSCAASGRIFSSYAMGWYRQAPGKERELVAAITRGGSTYYADSVKGRFTISRDNANNTVHLQMNSLKPEDPAVYYCAARPPYRYWFWGNEDYWGQGTQVTVSS	high polyreactivity
QVQLVESGGGIVQAGGSLRLSCAASGRIFVLYAMGSYRQAPGKERELVADITVSGGRTYYADSVKGRFTISRDNAKYTVYLQMNSLKPEDTAVYYCAASPRSYYWRYYQEDYWGQGTQVTVSS	high polyreactivity

Sequence	polyreactivity (PSR sort gate)
QVQLVESGGGIVQAGGSLRLSCAASGRIFWWYAMGMYRQAPGKERELVAVIDDSGGITYYADSVKGRFTISRDNAKNTVYLQMNSLKPEDTAVYYCARNVNAQKVLGGFDSWGQGTQVTVSS	low polyreactivity
QVQLVESGGGIVQAGGSLRLSCAASGRIFYINAMGWYRQSPGKERELVAAITGSGGRTYYADSVKGRFTISRDNAKNTVYLHINSLKPEDTAVYYCAAQKKHYSYSYWYDSLGQGTQVTVSS	high polyreactivity
QVQLVESGGGIVQAGGSLRLSCAASGRIFYYNAMGWYRQAPGKERELVAAISTRGTSTYYAESVKGRFTISRDNAKNTVYLQMNSLKPEDTAVYYCNRASGNWQSYLSYDYWGQGTQVTVSS	low polyreactivity
QVQLVESGGGIVQAGGSLRLSCAASGRLFYYYAMGWDRQAPGTERELVAVISRGVITYYADSVKGRFTISRDTAKNTVYLQMNSLKPEDTAVYYCAVSYPHYIYSYGYWGQGTQVTVSS	high polyreactivity
QVQLVESGGGIVQAGGSLRLSCAASGRTFWGYAMGWYRQAPGKERELVASISGRGGSTYYADSVKERFTISRDTAKNTVYLQINSLQPEDTAVYYCAATYFSVKWYYYWGEGTQVTVSS	high polyreactivity
QVQLVESGGGIVQAGGSLRLSCAASGRTLGGYAMGWYRQAPGKERELVAAITRRGGSTYYADSVKGRFTISRDNAKNTVYLQMNSLKPEDTAVYYCAARWYARSLTRFNYWGQGTQVTVSS	high polyreactivity
QVQLVESGGGIVQAGGSLRLSCAASGRTSVINAMGWYRQAPGKERELVASISRGGSTNYADSVKGRFTISRDNAKNTVYLQMNSLKPEDTAVYYCNADEQNDSFIWSYTIIYDYWGQGTQVTVSS	low polyreactivity
QVQLVESGGGIVQAGGSLRLSCAASGSIFADYAMGWYRQAPGKERELVAVISRRGGTTYYADSVKGRFTISRDNAKNSVYLQMNSLKPEDTAVYYCAARRSFNEYDYWGQGTQVTVSS	high polyreactivity
QVQLVESGGGIVQAGGSLRLSCAASGSIFQYNAMGWYRQAPGKERELVAAITRGDSTYYADSVKGRFTISRDNAKNTVYLQMNSLKPEDTAVYYCAARPRGKYDYWGQGTQVTVSS	high polyreactivity
QVQLVESGGGIVQAGGSLRLSCAASGSIFSYYAMGWYRMAPGKERELVAGITGGGSTDYADSLKGRFTISRDNAKNTVYLQMNSLKPEDTAVYYCAKRYVPWRPYDYWGKGTQVTVSS	low polyreactivity
QVQLVESGGGIVQAGGSLRLSCAASGSIFVENAMGWTRQAPGKERELVAAISSDASTNYADSVKGRFTISRDNAKNTVFLQRNSLKPEDTAVYYCAAGYNQHGQYDYWGQGTQVTVSS	low polyreactivity
QVQLVESGGGIVQAGGSLRLSCAASGSIFVHNDLGWYRQAPGKERELVARINTGGGTNYADSVKGRFTISRDNAKKTVYLQMNSLKPEDTAVYYCATDGDRDDHYFTDPEFDYWGQGTQVTVSS	low polyreactivity
QVQLVESGGGIVQAGGSLRLSCAASGSIFYPYVMGWYRQAPGKERELVAAITTSVGSTYYADSVKGRFTISRDHAKNTVYLQMNSLKPEDTAVYYCAAKYFGSRRPGRYNYWGQGTQVTVSS	high polyreactivity
QVQLVESGGGIVQAGGSLRLSCAASGSIFYQYAMGWYRQAPGKERELVAAISRSGGSTYYADSVKGRFTISRDNAKNNVYLQMNSLKPVDTAVYYCAARAVRAAYDYWGQGTQVTVSS	low polyreactivity
QVQLVESGGGIVQAGGSLRLSCAASGSISFLYTMGWYRQAPGKERELVAAITGSTASTYYADSVKGRFTISRDNAKNTVYLQMNSLKPEDTAVYYCAAYWYAEGYWVSRDYWGQGTQVTVSS	low polyreactivity
QVQLVESGGGIVQAGGSLRLSCAASGSSFQTNAMGWYRLAPGKERELVATINRSGDSTYYADSVKGRFTISRDNAKNTVYLQMNSLKPEDTAVYYCNKDWHSQDFSAYNSYDYWGQGTQVTVSS	low polyreactivity
QVQLVESGGGIVQAGGSLRLSCAASGSSINLYAMGWYRQAPGKERELVAAINDDAGSTYYADSVKGRFTISRDNAKNTVYLQMNSLKPEDTAVYYCNAGSRSTEYDYWGQGTQVTVSS	low polyreactivity
QVQLVESGGGIVQAGGSLRLSCAASGSTFATYTMGWYRQAPGKERELVAAISSRGGSTYYADSVKGRFTISRDNAKNTVYLQMNSLKPEDTAVYYCNARRSTDPARYYWGQGSQVTVSS	high polyreactivity
QVQLVESGGGIVQAGGSLRLSCAASGSTFESNAMGSYRQAPGKERELVAAISRGGNTYYADSVKGRFTISRDNAKNTVYLQMNSLKPEDTAVYYCNVDRGNPVQPSEYWGQGTQVTVSS	low polyreactivity
QVQLVESGGGIVQAGGSLRLSCAASGSTFFIYAMGWYRQAPGKERELVAAISGSGGTTYYADSVKGRFTISRDNAKNTVYLQMNSLKPEDTAVYYCAARTFSAFWRGGYDYWGQGTQVTVSS	low polyreactivity
QVQLVESGGGIVQAGGSLRLSCAASGSTFGYYAMGWYRQAPGKERELVAAISWRGGSTYYADSVKGRFTISRDNAKNTVYLQMNSLKPEDTAVYYCAAQRGGPFPRVVDLYDYWGQGTQVTVSS	low polyreactivity
